{
  "source": "patent US12180485B2",
  "about": "“Repressible control of gene expression” (TRUSTEES OF BOSTON UNIVERSITY, priority 2020, dated 2024)",
  "molecules": {"B1": {"name": "SEQ ID NO: 769: inducible system polypeptide, probably Table 20 (GID-GAI) (protein)", "chain": "MIEKKKSFAKGMGVKSTLVSGSKVYMTTFAEGSDARLEKIVEGDSIRSVNEGEAFSAEMADKNAGYKIGNAKFSHPKGYAVVANNPLYTGPVQQDMLGLKETLEKRYFGESADGNDNICIQVIHNILDIEKILAEYITNAAYAVNNISGLDKDIIGFGKFSTVYTYDEFKDPEHHRAAFNNNDKLINAIKAQYDEFDNFLDNPRLGYFGQAFFSKEGRNYIINYGNECYDILALLSGLRHWVVHNNEEESRISRTWLYNLDKNLSGGSGSGSSGGSGTMAASDEVNLIESRTVVPLNTWVLISNFKVAYNILRRPDGTFNRHLAEYLDRKVTANANPVDGVFSFDVLIDRRINLLSRVYRPAYADQEQPPSILDLEKPVDGDIVPVILFFHGGSFAHSSANSAIYDTLCRRLVGLCKCVVVSVNYRRAPENPYPCAYDDGWIALNWVNSRSWLKSKKDSKVHIFLAGDSSGGNIAHNVALRAGESGIDVLGNILLNPMFGGNERTESEKSLDGKYFVTVRDRDWYWKAFLPEGEDREHPACNPFSPRGKSLEGVSFPKSLVVVAGLDLIRDWQLAYAEGLKKAGQEVKLMHLEKATVGFYLLPNNNHFHNVMDEISAFVNAECPKKKRKV"}, "B2": {"name": "SEQ ID NO: 792: inducible system polypeptide, probably Table 20 (GID-GAI) (protein)", "chain": "MAPKKKRKVGIHGVPAAKRDHHHHHHQDKKTMMMNEEDDGNGMDELLAVLGYKVRSSEMADVAQKLEQLEVMMSNVQEDDLSQLATETVHYNPAELYTWLDSMLTDLNSGGSGSGSSGGSGTGPVQQDMLGLKETLEKRYFGESADGNDNICIQVIHNILDIEKILAEYITNAAYAVNNISGLDKDIIGFGKFSTVYTYDEFKDPEHHRAAFNNNDKLINAIKAQYDEFDNFLDNPRLGYFGQAFFSKEGRNYIINYGNECYDILALLSGLRHWVVHNNEEESRISRTWLYNLDKNLDNEYISTLNYLYDRITNELTNSFSKNSAANVNYIAETLGINPAEFAEQYFRFSIMKEQKNLGFNITKLREVMLDRKDMSEIRKNHKVFDSIRTKVYTMMDFVIYRYYIEEDAKVAAANKSLPDNEKSLSEKDIFVINLRGSFNDDQKDALYYDEANRIWRKLENIMHNIKEFRGNKTREYKKKDAPRLPRILPAGRDVSAFSKLMYALTMFLDGKEINDLLTTLINKFDNIQSFLKVMPLIGVNAKFVEEYAFFKDSAKIADELRLIKSFARMGEPIADARRAMYIDAIRILGTNLSYDELKALADTFSLDENGNKLKKGKHGMRNFIINNVISNKRFHYLIRYGDPAHLHEIAKNEAVVKFVLGRIADIQKKQGQNGKNQIDRYYETCIGKDKGKSVSEKVDALTKIITGMNYDQFDKKRSVIEDTGRENAEREKFKKIISLYLTVIYHILKNIVNINARYVIGFHCVERDAQLYKEKGYDINLKKLEEKGFSSVTKLCAGIDETAPDKRKDVEKEMAERAKESIDSLESANPKLYANYIKYSDEKKAEEFTRQINREKAKTALNAYLRNTKWNVIIREDLLRIDNKTCTLFRNKAVHLEVARYVHAYINDIAEVNSYFQLYHYIMQRIIMNERYEKSSGKVSEYFDAVNDEKKYNDRLLKLLCVPFGYCIPRFKNLSIEALFDRNEAAKFDKEKKKVSGNSGSGPKKKRKV"}, "B3": {"name": "SEQ ID NO: 793: inducible system polypeptide, probably Table 20 (GID-GAI) (protein)", "chain": "MLDLASLILIEKKKSFAKGMGVKSTLVSGSKVYMTTFAEGSDARLEKIVEGDSIRSVNEGEAFSAEMADKNAGYKIGNAKFSHPKGYAVVANNPLYTSGGSGSGSSGGSGTMAASDEVNLIESRTVVPLNTWVLISNFKVAYNILRRPDGTFNRHLAEYLDRKVTANANPVDGVFSFDVLIDRRINLLSRVYRPAYADQEQPPSILDLEKPVDGDIVPVILFFHGGSFAHSSANSAIYDTLCRRLVGLCKCVVVSVNYRRAPENPYPCAYDDGWIALNWVNSRSWLKSKKDSKVHIFLAGDSSGGNIAHNVALRAGESGIDVLGNILLNPMFGGNERTESEKSLDGKYFVTVRDRDWYWKAFLPEGEDREHPACNPFSPRGKSLEGVSFPKSLVVVAGLDLIRDWQLAYAEGLKKAGQEVKLMHLEKATVGFYLLPNNNHFHNVMDEISAFVNAECLDLASLIL"}, "B4": {"name": "SEQ ID NO: 770: inducible system polypeptide, probably Table 20 (GID-GAI) (protein)", "chain": "MKRDHHHHHHQDKKTMMMNEEDDGNGMDELLAVLGYKVRSSEMADVAQKLEQLEVMMSNVQEDDLSQLATETVHYNPAELYTWLDSMLTDLNSGGSGSGSSGGSGTDNEYISTLNYLYDRITNELTNSFSKNSAANVNYIAETLGINPAEFAEQYFRFSIMKEQKNLGFNITKLREVMLDRKDMSEIRKNHKVFDSIRTKVYTMMDFVIYRYYIEEDAKVAAANKSLPDNEKSLSEKDIFVINLRGSFNDDQKDALYYDEANRIWRKLENIMHNIKEFRGNKTREYKKKDAPRLPRILPAGRDVSAFSKLMYALTMFLDGKEINDLLTTLINKFDNIQSFLKVMPLIGVNAKFVEEYAFFKDSAKIADELRLIKSFARMGEPIADARRAMYIDAIRILGTNLSYDELKALADTFSLDENGNKLKKGKHGMRNFIINNVISNKRFHYLIRYGDPAHLHEIAKNEAVVKFVLGRIADIQKKQGQNGKNQIDRYYETCIGKDKGKSVSEKVDALTKIITGMNYDQFDKKRSVIEDTGRENAEREKFKKIISLYLTVIYHILKNIVNINARYVIGFHCVERDAQLYKEKGYDINLKKLEEKGFSSVTKLCAGIDETAPDKRKDVEKEMAERAKESIDSLESANPKLYANYIKYSDEKKAEEFTRQINREKAKTALNAYLRNTKWNVIIREDLLRIDNKTCTLFRNKAVHLEVARYVHAYINDIAEVNSYFQLYHYIMQRIIMNERYEKSSGKVSEYFDAVNDEKKYNDRLLKLLCVPFGYCIPRFKNLSIEALFDRNEAAKFDKEKKKVSGNSGSGPKKKRKV"}, "B5": {"name": "SEQ ID NO: 796: inducible system polypeptide, probably Table 20 (GID-GAI) (protein)", "chain": "MAPKKKRKVGIHGVPAAKRDHHHHHHQDKKTMMMNEEDDGNGMDELLAVLGYKVRSSEMADVAQKLEQLEVMMSNVQEDDLSQLATETVHYNPAELYTWLDSMLTDLNSGGSGSGSSGGSGTSYDELKALADTFSLDENGNKLKKGKHGMRNFIINNVISNKRFHYLIRYGDPAHLHEIAKNEAVVKFVLGRIADIQKKQGQNGKNQIDRYYETCIGKDKGKSVSEKVDALTKIITGMNYDQFDKKRSVIEDTGRENAEREKFKKIISLYLTVIYHILKNIVNINARYVIGFHCVERDAQLYKEKGYDINLKKLEEKGFSSVTKLCAGIDETAPDKRKDVEKEMAERAKESIDSLESANPKLYANYIKYSDEKKAEEFTRQINREKAKTALNAYLRNTKWNVIIREDLLRIDNKTCTLFRNKAVHLEVARYVHAYINDIAEVNSYFQLYHYIMQRIIMNERYEKSSGKVSEYFDAVNDEKKYNDRLLKLLCVPFGYCIPRFKNLSIEALFDRNEAAKFDKEKKKVSGNSGSGPKKKRKV"}, "B6": {"name": "SEQ ID NO: 797: inducible system polypeptide, probably Table 20 (GID-GAI) (protein)", "chain": "MLDLASLILIEKKKSFAKGMGVKSTLVSGSKVYMTTFAEGSDARLEKIVEGDSIRSVNEGEAFSAEMADKNAGYKIGNAKFSHPKGYAVVANNPLYTGPVQQDMLGLKETLEKRYFGESADGNDNICIQVIHNILDIEKILAEYITNAAYAVNNISGLDKDIIGFGKFSTVYTYDEFKDPEHHRAAFNNNDKLINAIKAQYDEFDNFLDNPRLGYFGQAFFSKEGRNYIINYGNECYDILALLSGLRHWVVHNNEEESRISRTWLYNLDKNLDNEYISTLNYLYDRITNELTNSFSKNSAANVNYIAETLGINPAEFAEQYFRFSIMKEQKNLGFNITKLREVMLDRKDMSEIRKNHKVFDSIRTKVYTMMDFVIYRYYIEEDAKVAAANKSLPDNEKSLSEKDIFVINLRGSFNDDQKDALYYDEANRIWRKLENIMHNIKEFRGNKTREYKKKDAPRLPRILPAGRDVSAFSKLMYALTMFLDGKEINDLLTTLINKFDNIQSFLKVMPLIGVNAKFVEEYAFFKDSAKIADELRLIKSFARMGEPIADARRAMYIDAIRILGTNLSGGSGSGSSGGSGTMAASDEVNLIESRTVVPLNTWVLISNFKVAYNILRRPDGTFNRHLAEYLDRKVTANANPVDGVFSFDVLIDRRINLLSRVYRPAYADQEQPPSILDLEKPVDGDIVPVILFFHGGSFAHSSANSAIYDTLCRRLVGLCKCVVVSVNYRRAPENPYPCAYDDGWIALNWVNSRSWLKSKKDSKVHIFLAGDSSGGNIAHNVALRAGESGIDVLGNILLNPMFGGNERTESEKSLDGKYFVTVRDRDWYWKAFLPEGEDREHPACNPFSPRGKSLEGVSFPKSLVVVAGLDLIRDWQLAYAEGLKKAGQEVKLMHLEKATVGFYLLPNNNHFHNVMDEISAFVNAECLDLASLIL"}},
  "data": [
    {"system": "mCherry expression in HEK293 FT cells", "assay": "Inducible split RfxCas13d (GIB, RAP, ABA, Dano, GRZ CID domains; NES/NLS variants) mCherry knockdown, leakiness and inducibility", "format": "cell-based", "details": "inducible polypeptide systems of Tables 18-22", "text": "FIG. 6A-6C is a series of schematics and graphs showing that split RfxCas13d's reconstituted and functioned to knockdown mCherry expression in HEK293 FT cells FIG. 6A is a schematic showing split sites selected throughout RfxCas13d sequence. FIG. 6B is a bar graph showing mCherry expression under 4 conditions for gibberellin-inducible, rapalog-inducible, and abscisic acid-inducible inducible split Cas13d designs. In FIG. 6B and FIG. 6C, the left-right order of the bars for each split site is the same as the left-right order of the legend for each bar graph.\nFIG. 7A-7E is a series of schematics and graphs showing a functional and inducible split Cas13d design. FIG. 7A is a bar graph showing additional split sites selected in RfxCas13d and tested with GIB CID domains. […] In FIG. 7A and FIG. 7C, the left-right order of the bars for each split site is the same as the left-right order of the legend. FIG. 7B is a schematic showing the design to compartmentalize splits. Compartmentalizing moieties facilitates the reduction of leakiness. […] FIG. 7D is a schematic showing the experiment flow for testing reversibility of the inducible split Cas13d's.\nFIG. 8A-8B is a series of schematics and graphs showing that split RfxCas13d's reconstituted upon drug-induced dimerization and knocked down mCherry expression in HEK293 FT cells. FIG. 8A is a bar graph showing quantification of system performance. The left-right order of the bars for each split site is the same as the top-down order of the legend. […] System performance in leakiness score (left axis) and induced activity (right axis) by GIB, RAP, ABA, and Dano-inducible split Cas13d designs.\nFIG. 10A-10B is a series of schematics and graphs showing performance optimization through separating split Cas13d moieties in different cellular compartments. […] The left-right order of the bars for each bar graph is the same as the top-down order of the legend.\nFIG. 11 is a series of schematics and graphs showing the testing of reversed orientation (dark grey dots) of CID domains with respect to split Cas13d pieces against original orientations (light grey dots) designed for GIB, ABA, Dano, and GRZ inducible systems.", "values": [
      {"molecule": "B1", "performance in the tested conditions": "highest performance"},
      {"molecule": "B2", "performance in the tested conditions": "highest performance"},
      {"molecule": "B3", "performance in the tested conditions": "highest performance"},
      {"molecule": "B4", "performance in the tested conditions": "highest performance"},
      {"molecule": "B5", "performance in the tested conditions": "highest performance"},
      {"molecule": "B6", "performance in the tested conditions": "highest performance"}
    ]}
  ]
}
